The source of these data is the supplement of paper PMC6755084.

This data set concerns F1*sub RNA substrate (template-directed ligation). Nature of the data set: fraction ligated after 30 min (ligated reads / total reads); higher = more ligase activity; sequences stand for … in GAGACCGCAACTGAAAAGTTGT…AGTTCTGCACGTAGAAGCAAAAGGC
The following applies: 42 °C. How it is done:
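Chip-synthesised pool of F1* ligase ribozyme variants (all single and double substitutions, single, double and triple deletions in the catalytic core and GAA bulge, plus designed variants) was transcribed with T7 and reacted as a pool with excess substrate F1*sub for 30 min at 42 C in 50 mM EPPS pH 8.5, 25 mM MgCl2. Ligated and unligated bands were separated by PAGE, barcoded by RT and deep sequenced; fraction ligated = ligated reads / total reads per variant, relative activity = FL / FL of wild type (0.826). Sequences are the DNA template of the ribozyme.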
Sequence TACACTTGTCGTAAACACTTTGGATGGGTTA [3d680] gave a fraction ligated of 0.00723.

TACACTTGTCGTAAACACTTTGGATGGGTTG [3d681] yielded a fraction ligated of 0.0503.

TACACTTGTCGTAAACACTTTGGATGGGTTGA [2d57] registered a fraction ligated of 0.0886.

Sequence TACACTTGTCGTAAACACTTTGGATGGTTGA [3d679] had a fraction ligated of 0.101.

Turning to TACACTTGTCGTAAACACTTTGGTGGGTTGA [3d677], the fraction ligated is 0.0298.

TACACTTGTCGTAAACATTTGGATGGGTTGA [3d674] yielded a fraction ligated of 0.457.

Consider TACACTTGTCGTAAACCTTTGGATGGGTTGA [3d673], for which the fraction ligated came to 0.0569.

In the case of TACACTTGTCGTAACACTTTGGATGGGTTGA [3d660], the fraction ligated was determined as 0.00473.

In turn, TACACTTGTCGTAAGAACTTGGATGGGTTGA [3d693] gave a fraction ligated of 0.00498.

Take TACACTTGTCGTAAGAACTTTGATGGGTTGA [3d694]: the fraction ligated worked out at 0.00588.

Regarding TACACTTGTCGTAAGAACTTTGGAGGGTTGA [3d696], the fraction ligated was 0.0171.

For TACACTTGTCGTAAGAACTTTGGATGGGTTA [3d698], the fraction ligated turned out to be 0.00405.

In the case of TACACTTGTCGTAAGAACTTTGGATGGGTTG [3d699], the fraction ligated came to 0.00593.

For TACACTTGTCGTAAGAACTTTGGATGGGTTGA [2d59], the fraction ligated turned out to be 0.0167.

Sequence TACACTTGTCGTAAGAACTTTGGATGGTTGA [3d697] returned a fraction ligated of 0.0122.

In turn, TACACTTGTCGTAAGAACTTTGGTGGGTTGA [3d695] displayed a fraction ligated of 0.0304.

Take TACACTTGTCGTAAGAATTTGGATGGGTTGA [3d692]: the fraction ligated came to 0.123.

Regarding TACACTTGTCGTAAGACACTGGATGGGTTGA [3d714], the fraction ligated was determined as 0.191.

TACACTTGTCGTAAGACACTTGATGGGTTGA [3d715] registered a fraction ligated of 0.0512.

For TACACTTGTCGTAAGACACTTGGAGGGTTGA [3d717], the fraction ligated came to 0.0172.

Regarding TACACTTGTCGTAAGACACTTGGATGGGTTA [3d719], the fraction ligated was determined as 0.0331.

In turn, TACACTTGTCGTAAGACACTTGGATGGGTTG [3d720] yielded a fraction ligated of 0.106.

Turning to TACACTTGTCGTAAGACACTTGGATGGGTTGA [2d62], the fraction ligated turned out to be 0.183.

In the case of TACACTTGTCGTAAGACACTTGGATGGTTGA [3d718], the fraction ligated was found to be 0.0649.

Consider TACACTTGTCGTAAGACACTTGGTGGGTTGA [3d716], for which the fraction ligated worked out at 0.0903.

TACACTTGTCGTAAGACACTTTATGGGTTGA [3d721]: the fraction ligated was found to be 0.0103.

For TACACTTGTCGTAAGACACTTTGAGGGTTGA [3d723], the fraction ligated turned out to be 0.0442.

Regarding TACACTTGTCGTAAGACACTTTGATGGGTTA [3d725], the fraction ligated is 0.0317.

Consider TACACTTGTCGTAAGACACTTTGATGGGTTG [3d726], for which the fraction ligated was 0.0988.

With TACACTTGTCGTAAGACACTTTGATGGGTTGA [2d63], the fraction ligated stood at 0.194.

Turning to TACACTTGTCGTAAGACACTTTGATGGTTGA [3d724], the fraction ligated amounted to 0.0498.

With TACACTTGTCGTAAGACACTTTGGAGGGTTA [3d732], the fraction ligated came to 0.0323.

TACACTTGTCGTAAGACACTTTGGAGGGTTG [3d733] gave a fraction ligated of 0.0821.

Consider TACACTTGTCGTAAGACACTTTGGAGGGTTGA [2d65], for which the fraction ligated worked out at 0.182.

As for TACACTTGTCGTAAGACACTTTGGAGGTTGA [3d731], the fraction ligated came to 0.

The sequence TACACTTGTCGTAAGACACTTTGGATGGGTT [3d736] registered a fraction ligated of 0.00884.

Turning to TACACTTGTCGTAAGACACTTTGGATGGGTTA [2d67], the fraction ligated turned out to be 0.274.

Sequence TACACTTGTCGTAAGACACTTTGGATGGGTTG [2d68] showed a fraction ligated of 0.758.

Sequence TACACTTGTCGTAAGACACTTTGGATGGGTTGA [1d3] had a fraction ligated of 0.748.

TACACTTGTCGTAAGACACTTTGGATGGTTA [3d734] gave a fraction ligated of 0.405.

TACACTTGTCGTAAGACACTTTGGATGGTTG [3d735] came in with a fraction ligated of 0.507.

TACACTTGTCGTAAGACACTTTGGATGGTTGA [2d66] registered a fraction ligated of 0.644.

Sequence TACACTTGTCGTAAGACACTTTGGGGGTTGA [3d727] registered a fraction ligated of 0.0616.

For the sequence TACACTTGTCGTAAGACACTTTGGTGGGTTA [3d729], the fraction ligated is 0.00637.

The sequence TACACTTGTCGTAAGACACTTTGGTGGGTTG [3d730] returned a fraction ligated of 0.035.

Turning to TACACTTGTCGTAAGACACTTTGGTGGGTTGA [2d64], the fraction ligated worked out at 0.153.

The sequence TACACTTGTCGTAAGACACTTTGGTGGTTGA [3d728] showed a fraction ligated of 0.0111.

TACACTTGTCGTAAGACACTTTGTGGGTTGA [3d722] returned a fraction ligated of 0.115.

Sequence TACACTTGTCGTAAGACATTGGATGGGTTGA [3d707] gave a fraction ligated of 0.239.

TACACTTGTCGTAAGACATTTGATGGGTTGA [3d708] registered a fraction ligated of 0.0186.

Take TACACTTGTCGTAAGACATTTGGAGGGTTGA [3d710]: the fraction ligated came to 0.0254.

Take TACACTTGTCGTAAGACATTTGGATGGGTTA [3d712]: the fraction ligated was 0.0725.

For the sequence TACACTTGTCGTAAGACATTTGGATGGGTTG [3d713], the fraction ligated was determined as 0.324.

Regarding TACACTTGTCGTAAGACATTTGGATGGGTTGA [2d61], the fraction ligated stood at 0.472.

TACACTTGTCGTAAGACATTTGGATGGTTGA [3d711]: the fraction ligated was 0.113.

TACACTTGTCGTAAGACATTTGGTGGGTTGA [3d709] had a fraction ligated of 0.0505.

Take TACACTTGTCGTAAGACCTTGGATGGGTTGA [3d700]: the fraction ligated stood at 0.222.

Take TACACTTGTCGTAAGACCTTTGATGGGTTGA [3d701]: the fraction ligated amounted to 0.0781.

Take TACACTTGTCGTAAGACCTTTGGAGGGTTGA [3d703]: the fraction ligated was determined as 0.0299.

Consider TACACTTGTCGTAAGACCTTTGGATGGGTTA [3d705], for which the fraction ligated turned out to be 0.136.

TACACTTGTCGTAAGACCTTTGGATGGGTTG [3d706]: the fraction ligated was found to be 0.659.

In turn, TACACTTGTCGTAAGACCTTTGGATGGGTTGA [2d60] registered a fraction ligated of 0.625.

For the sequence TACACTTGTCGTAAGACCTTTGGATGGTTGA [3d704], the fraction ligated worked out at 0.358.

For the sequence TACACTTGTCGTAAGACCTTTGGTGGGTTGA [3d702], the fraction ligated was 0.138.

In the case of TACACTTGTCGTAAGACTTTGGATGGGTTGA [3d682], the fraction ligated was 0.409.

The sequence TACACTTGTCGTAAGCACTTGGATGGGTTGA [3d685] registered a fraction ligated of 0.0451.

TACACTTGTCGTAAGCACTTTGATGGGTTGA [3d686] showed a fraction ligated of 0.0278.

The sequence TACACTTGTCGTAAGCACTTTGGAGGGTTGA [3d688] had a fraction ligated of 0.0515.

As to TACACTTGTCGTAAGCACTTTGGATGGGTTA [3d690], the fraction ligated was determined as 0.0198.

In the case of TACACTTGTCGTAAGCACTTTGGATGGGTTG [3d691], the fraction ligated came to 0.151.

With TACACTTGTCGTAAGCACTTTGGATGGGTTGA [2d58], the fraction ligated worked out at 0.183.

TACACTTGTCGTAAGCACTTTGGATGGTTGA [3d689] registered a fraction ligated of 0.101.

TACACTTGTCGTAAGCACTTTGGTGGGTTGA [3d687] came in with a fraction ligated of 0.114.

TACACTTGTCGTAAGCATTTGGATGGGTTGA [3d684] registered a fraction ligated of 0.453.

On to TACACTTGTCGTAAGCCTTTGGATGGGTTGA [3d683], for which the fraction ligated worked out at 0.0763.

TACACTTGTCGTAGAACTTTGGATGGGTTGA [3d662] showed a fraction ligated of 0.145.

With TACACTTGTCGTAGACACTTGGATGGGTTGA [3d665], the fraction ligated stood at 0.101.

Take TACACTTGTCGTAGACACTTTGATGGGTTGA [3d666]: the fraction ligated was found to be 0.0743.

Regarding TACACTTGTCGTAGACACTTTGGAGGGTTGA [3d668], the fraction ligated worked out at 0.146.

In the case of TACACTTGTCGTAGACACTTTGGATGGGTTA [3d670], the fraction ligated is 0.0913.

Take TACACTTGTCGTAGACACTTTGGATGGGTTG [3d671]: the fraction ligated was 0.514.

In the case of TACACTTGTCGTAGACACTTTGGATGGGTTGA [2d56], the fraction ligated amounted to 0.617.

Regarding TACACTTGTCGTAGACACTTTGGATGGTTGA [3d669], the fraction ligated is 0.524.

Turning to TACACTTGTCGTAGACACTTTGGTGGGTTGA [3d667], the fraction ligated turned out to be 0.0835.

As for TACACTTGTCGTAGACATTTGGATGGGTTGA [3d664], the fraction ligated turned out to be 0.464.

In the case of TACACTTGTCGTAGACCTTTGGATGGGTTGA [3d663], the fraction ligated came out at 0.173.

TACACTTGTCGTAGCACTTTGGATGGGTTGA [3d661]: the fraction ligated was determined as 0.0075.

TACACTTGTCGTGACACTTTGGATGGGTTGA [3d659]: the fraction ligated is 0.0318.

In turn, TACACTTGTCTAAACACTTTGGATGGGTTGA [3d634] yielded a fraction ligated of 0.177.

With TACACTTGTCTAAGAACTTTGGATGGGTTGA [3d636], the fraction ligated was 0.116.

TACACTTGTCTAAGACACTTGGATGGGTTGA [3d639] registered a fraction ligated of 0.087.

As for TACACTTGTCTAAGACACTTTGATGGGTTGA [3d640], the fraction ligated came out at 0.0986.

For TACACTTGTCTAAGACACTTTGGAGGGTTGA [3d642], the fraction ligated amounted to 0.115.

Consider TACACTTGTCTAAGACACTTTGGATGGGTTA [3d644], for which the fraction ligated was found to be 0.131.

Sequence TACACTTGTCTAAGACACTTTGGATGGGTTG [3d645] yielded a fraction ligated of 0.595.
